Publication PMC10130975

Biological target: human glycerol kinase (His-GK) (human) (UniProt P32189)
Test: native gel or EMSA; native-PAGE without the denaturants of SDS-PAGE; purified His-GK ran at ~100 kDa, against ~55 kDa by 10% SDS-PAGE

“human glycerol kinase (His-GK) (from UniProt P32189 1-559) (enzyme)” showed a stoichiometry N of 2.
